From patent publication EP0853661B1 (CAMBRIDGE ANTIBODY TECHNOLOGY LIMITED, dated 2000) come the findings set out here.

Positions count from the first letter of the chain named. Some results are limits rather than exact numbers.

For orientation: koff means the first-order rate constant of dissociation. As a reminder, the kon is the rate constant with which the complex forms. Usually Kd stands for a measure of binding affinity in units of concentration. As a reminder, the IC50 is the concentration at which inhibition is half-maximal. Higher therefore signals weaker potency in that assay.

Test [1] addresses T1, human TGFβ2 (transforming growth factor beta 2) (human, UniProt P61812 303-414).
T1 sequence (looked up): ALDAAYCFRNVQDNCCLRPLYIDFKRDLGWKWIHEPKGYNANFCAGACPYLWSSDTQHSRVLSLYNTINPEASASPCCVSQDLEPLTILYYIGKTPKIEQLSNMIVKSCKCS
The experiment in a line: cell-based or functional assay.

The target of test [2] is T1, human TGFβ2 (transforming growth factor …). The experiment in a line: cell-based or functional assay. This is another data set of the same source.
Test [3] addresses T2, TGFβ3 (transforming growth factor beta 3) (UniProt P10600 301-412).
T2 sequence (looked up): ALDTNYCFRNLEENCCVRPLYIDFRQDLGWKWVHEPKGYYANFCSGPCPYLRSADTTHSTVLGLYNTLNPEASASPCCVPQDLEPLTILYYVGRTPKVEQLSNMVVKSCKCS
The experiment in a line: cell-based or functional assay.

The target of test [4] is T2, TGFβ3 (transforming growth factor beta …). The experiment in a line: A549 cell radioreceptor assay.
The target is the same in test [5]. Nature of the test: BIAcore 2000, ratio of dissociation constants. Background: SPR reads the build-up and loss of mass on a sensor chip optically.
Test [6] shares this target. The experiment in a line: BIAcore 2000, antigen immobilised, antibody as analyte.
The target is the same in test [7]. The experiment in a line: BIAcore 2000, antigen immobilised, antibody as analyte; koff divided by kon.
The target is the same in test [8]. Nature of the test: A549 cell radioreceptor assay, inhibition of 125I-TGFβ3 binding to receptors.
For test [9] the target is unchanged. Nature of the test: cell-based or functional assay. The source holds these as a separate data set.
Test [10] concerns the target T1, human TGFβ2 (transforming growth factor …). The experiment in a line: BIACore, IgG4 over TGFβ2-coated chip.
The target in test [11] is T3, human TGFβ1 (transforming growth factor beta 1) (human, UniProt P01137 279-390).
T3 construct: mature; Active dimer; also called TGFbeta1
The experiment in a line: BIACore, scFv (35µl) injected over amine-coupled antigen on CM5 chip; chip as printed.

Test [12] deals with T1, human TGFβ2 (transforming growth factor …). The description is as above.
Test [13] addresses T3, human TGFβ1 (transforming growth factor …). The experiment in a line: specificity ELISA, TGFβ isoforms coated at 0.2µg/ml. For orientation: ELISA stands for enzyme-linked immunosorbent assay.

T3 sequence (P01137 279-390 limits assumed): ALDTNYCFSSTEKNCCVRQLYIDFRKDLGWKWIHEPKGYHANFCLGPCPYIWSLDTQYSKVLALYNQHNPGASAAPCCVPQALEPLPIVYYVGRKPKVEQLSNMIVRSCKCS

B1: 6B1 IgG4 (antibody, V domains shown)
VH: EVQLVESGGGVVQPGRSLRLSCAASGFTFSSYGMHWVRQAPGKGLEWVAVIWYDGSNKYYADSVKGRFTISRDNSKNTLYLQMDSLRAEDTAVYYCGRTLESSLWGQGTLVTVSS
VL: SSELTQDPAVSVALGQTVRITCQGDSLRSYYASWYQQKPGQAPVLVIYGKNNRPSGIPDRFSGSSSGNTASLTITGAQAEDEADYYCNSRDSSSTHRGVFGGGTKLTVLG
As for B1, in test [1], the “IC50 in the TF1 neutralisation assay (6B1 IgG4 from cell line 5D8-2A6)” value stood at 1.8 nM. The “I.C.50 in TF1 assay (neutralisation of the TGFβ2 inhibition of IL-5 induced TF1 cell proliferation)” value in [2] came out at 11 nM. Also, in [3], the “TF1 cell proliferation assay IC50 (nM IgG)” value amounted to 11 nM. In addition, the “cross-reactivity with TGFβ3 relative to TGFβ2” value in test [4] is less than 2%. Also, the “cross-reactivity with TGFβ3 (ratio of dissociation constants for TGFβ3 and TGFβ2)” value in [5] was determined as 9%. Besides, in test [6], the koff worked out at 0.00045 s⁻¹ and the kon was 45000 M⁻¹ s⁻¹. This molecule also displayed an equilibrium dissociation constant (Kd) in test [7] of 10 nM. Further, the IC50 in test [8] was found to be 4 nM.

B2: 6H1 IgG4 (antibody, V domains shown)
VH: B1 VH
VL: DVVMTQSPSSLSASVGDRVTITCRASQGISNYLAWYQQKPGKAPKLLIYKASTLESGVPSRFSGSGSGTEFTLTISSLQPEDFATYYCQQSYSTPRTFGQGTKVDIKR
For the molecule B2, in test [1], the “IC50 in the TF1 neutralisation assay (6H1 IgG4 from a CHO cell line)” value worked out at 15 nM and the “IC50 of neutralisation of TGFβ2 in the TF1 cell proliferation assay” value was 12 nM. In addition, the “IC50 of neutralisation of TGFβ3 in the TF1 cell proliferation assay” value in test [9] is roughly 20 nM. In addition, in [2], the “I.C.50 in TF1 assay (neutralisation of the TGFβ2 inhibition of IL-5 induced TF1 cell proliferation)” value turned out to be 100 nM.

B3: 6A5 IgG4 (antibody, V domains shown)
VH: B1 VH
VL: SSELTQDPAVSVALGQTVRITCQGDSLRSYYASWYQQKPGQAPVLVIYGKNNRPSGIPDRFAGSNSGNTASLTITGAQAEDEADYYCSSRDSSGNHVVFGGGTKLTVLG
B3: the “I.C.50 in TF1 assay (neutralisation of the TGFβ2 inhibition of IL-5 induced TF1 cell proliferation)” value in test [2] worked out at 150 nM.

B4: 27C1/10A6 IgG4 (antibody, V domains shown)
VH: QVQLVESGGGVVQPGRSLRLSCAASGLTFSSYDMHWVRQPPAKGLEWVAVISYDGSSKYYADSVKGRFTISRDNSKNTLYLQMNSLRAEDTAVYYCARTGEYSGYDTSGVELWGQGTTVTVSS
VL: B1 VL with S1H, S2V, E3I, R28K, K50E, N52S, S94G, R97L, G98E
Consider B4, for which the “fold higher dissociation constant for TGFβ2 compared to TGFβ1” value in test [10] is no less than 10 fold.

B5: 6A5 scFv (scFv)
chain: EVQLVESGGGVVQPGRSLRLSCAASGFTFSSYGMHWVRQAPGKGLEWVAVIWYDGSNKYYADSVKGRFTISRDNSKNTLYLQMDSLRAEDTAVYYCGRTLESSLWGQGTLVTVSSGGGGSGGGGSGGGGSSSELTQDPAVSVALGQTVRITCQGDSLRSYYASWYQQKPGQAPVLVIYGKNNRPSGIPDRFAGSNSGNTASLTITGAQAEDEADYYCSSRDSSGNHVVFGGGTKLTVLG
B5: in [2], the “I.C.50 in TF1 assay (neutralisation of the TGFβ2 inhibition of IL-5 induced TF1 cell proliferation)” value worked out at 8 nM. For the same molecule, the “total increase in resonance units (RU)” value in test [11] was 480 RU; in [12], 71 RU.

B6: 6H1 scFv (scFv)
chain: EVQLVESGGGVVQPGRSLRLSCAASGFTFSSYGMHWVRQAPGKGLEWVAVIWYDGSNKYYADSVKGRFTISRDNSKNTLYLQMDSLRAEDTAVYYCGRTLESSLWGQGTLVTVSSGGGGSGGGGSGGGGSDVVMTQSPSSLSASVGDRVTITCRASQGISNYLAWYQQKPGKAPKLLIYKASTLESGVPSRFSGSGSGTEFTLTISSLQPEDFATYYCQQSYSTPRTFGQGTKVDIKR
On to B6, for which the “I.C.50 in TF1 assay (neutralisation of the TGFβ2 inhibition of IL-5 induced TF1 cell proliferation)” value in [2] amounted to 1.5 nM. Besides, the “total increase in resonance units (RU)” value turned out to be 686 RU in [11] and 77 RU in test [12].

B7: 6B1 scFv (scFv)
chain: EVQLVESGGGVVQPGRSLRLSCAASGFTFSSYGMHWVRQAPGKGLEWVAVIWYDGSNKYYADSVKGRFTISRDNSKNTLYLQMDSLRAEDTAVYYCGRTLESSLWGQGTLVTVSSGGGGSGGGGSGGGGSSSELTQDPAVSVALGQTVRITCQGDSLRSYYASWYQQKPGQAPVLVIYGKNNRPSGIPDRFSGSSSGNTASLTITGAQAEDEADYYCNSRDSSSTHRGVFGGGTKLTVLG
Regarding B7, in test [2], the “I.C.50 in TF1 assay (neutralisation of the TGFβ2 inhibition of IL-5 induced TF1 cell proliferation)” value was found to be 15 nM.

B8: 10A6 scFv (scFv)
chain: QVQLVESGGGVVQPGRSLRLSCAASGFTFSSYGMHWVRQAPGKGLEWVAVISYDGSNKYYADSVKGRFTISRDNSKNTLYLQMNSLRAEDTAVYYCAKTGEYSGYDSSGVDVWGKGTTVTVSSGGGGSGGGGSGGGGSHVILTQDPAVSVALGQTVRITCQGDSLKSYYASWYQQKPGQAPVLVIYGENSRPSGIPDRFSGSSSGNTASLTITGAQAEDEADYYCNSRDSSGTHLEVFGGGTKLTVLG
Regarding B8, the “fold ELISA signal on TGFβ1 against the signal on TGFβ2 and TGFβ3” value in [13] is no less than 5 fold.

B9: 14F12 scFv (scFv)
chain: EIQLVESGGGVVQPGRSLRLSCAASGFTFSSYAMHWVRQAPAKGLEWVAVISYDGSNKYYADSVKGRFTISRDNSKNTLYLQMNSLRAEDTAVYYCARAGLETTWGQGTLVTVSSSGGGGGSGGGGSGGGGSSSELTQDPAVSVALGQTVRITCQGDSLRNYYANWYQQKPGQAPVLVIYGKNNRPSGIPDRFSGSSSGNTASLTITGARAEDEGVYYCNSRDSSGAVFGGGTKLTVLG
Consider B9, for which the “I.C.50 in TF1 assay (neutralisation of the TGFβ2 inhibition of IL-5 induced TF1 cell proliferation)” value in test [2] came out at 90 nM. Further, the “total increase in resonance units (RU)” value in test [11] stood at 616 RU; in test [12], 115 RU.
